Reference: patent US20260265316A1, “IMMUNOTHERAPEUTIC METHODS, COMPOUNDS, AND COMPOSITIONS FOR TREATING OR PREVENTING CELIAC DISEASE” (DBV Technologies, priority 2023, published 2026)

Legend:
Format in all cases: cell-based, human
[1] = test system: circulating gluten-specific CD4+ T cells in whole blood of HLA-DQ2+ CeD patients; assay: Whole blood IL-2 cytokine release assay, HLA-DQ2+ CeD participants; details: 24 hours; for IL-2 response (in words): HLA-DQ2+ donors, whole blood; for mean IL-2 titer: HLA-DQ2+ participants, 10 μM
Excerpt: FIGS. 10A-10B are graphs depicting the evaluation of the ability of various molarities of three gliadin polypeptides (Cv6, Av6, and 4K), two peptide mixes containing either the four individual building blocks BB1, BB2a, BB3a and BB4a (BB1-4a) or two Nexvax2 peptides (Nex01/02), and six individual building blocks or peptides (BB1, BB2a, BB3a, BB4a, Nex01, and Nex02) to restimulate gluten-specific T cell collected from HLA-DQ2+ CeD patients using a whole blood IL-2 release assay. The whole blood cytokine release assay was performed in six HLA-DQ2+ participants with biopsy-confirmed celiac disease. Whole blood was stimulated with the three gliadin polypeptide constructs Cv6, Av6, and 4K at 10, 2.5, and 0.5 μM final molarities, as indicated. Alternatively, whole blood was stimulated with a mix of peptides containing either the four building blocks BB1, BB2a, BB3a, and BB4a (BB1-4a) or Nex01 and Nex 02 (Nex01/02) at 10, 2.5, and 0.5 μM final molarities. Building blocks (BB1, BB2a, BB3a, and BB4a), Nex01, and Nex02 were also tested as individual peptides, at a single concentration of 10 μM. After 24 hours of incubation, the concentration of IL-2 was quantified from plasma using an MSD IL-2 S-plex ELISA. Data are expressed in femtogram/mL of plasma (A), or as fold change from the negative control (PBS 1×) (B). Symbols represent individual participants (patient ID); bars represent median+interquartile range of individual values.
(§1) The overarching objective of this assay was to validate that the polypeptide constructs (Cv6, Av6, and 4K) can be recognized and processed by human APCs, and they can then promote the activation of gluten-specific effector/memory CD4^+ T cells in CeD patients. A Cytokine Release Assay (CRA) was used (previously described in the literature: Anderson et al., Clinical & Experimental Immunology, 2021 June; 204(3): 321-334; and in Hardy et al., Frontiers in Immunology, 2021, Vol. 12, Article 661662, the entire contents of each of which are incorporated by reference herein). This assay quantifies IL-2 produced by circulating gluten-specific CD4^+ T cells present in the blood of CeD patients upon in vitro stimulation with gluten-derived antigens. Due to the extremely high sensitivity of this CRA, no oral exposure to gluten was required prior to blood sampling.
(§2) Informed consent was obtained from all subjects prior to blood collection.
(§3) Unfractionated blood (225 μL per well of a 96-well plate) was then rapidly restimulated for 24 hours with each of three of the polypeptide constructs provided herein (SEQ ID NO:23 wherein X is C [Cv6, i.e., SEQ ID NO:49], SEQ ID NO:23 wherein X is A [Av6, i.e., SEQ ID NO:50], and SEQ ID NO:46 [4K]) and with each of four individual building blocks (SEQ ID NO:15 wherein Z is E [BB1], SEQ ID NO:16 wherein Z is E [BB2a], SEQ ID NO:20 wherein Z is E [BB3a], and SEQ ID NO:18 wherein Z is E [BB4a]). The concentrations of the polypeptide constructs ranged from 0.5 to 10 micromolar, and the concentration for each individual building block was 10 micromolar. […] These two peptides comprise an N-terminal pyroglutamate and a C-terminal amide. Nex01 and Nex02 were the two gliadin peptides used in the Nexvax2 immunotherapeutic vaccine that was intended to restore immune tolerance to gluten in HLA-DQ2.5+ CeD patients. A positive control consisted of blood cells stimulated with phytohemagglutinin (PHA) (10 μg/mL) which activates all T cells regardless of their antigen specificity (i.e., a polyclonal activator). Negative controls consisted of cells treated with buffer only (PBS 1×).
(§4) After incubation for 24 hours at 37° C. and 5% CO2, plasma was separated from whole blood by centrifugation. Plasma was collected from each well and replicates (n=6 replicates per test) pooled. All plasma samples were frozen at −80° C. until analysis. Single plasma aliquots (100 μL) were thawed and analyzed in duplicate using MSD IL-2 S-plex according to the manufacturer's instructions.

[2] = test system: circulating gluten-specific CD4+ T cells in whole blood of HLA-DQ8+ CeD patients; assay: Whole blood IL-2 cytokine release assay, HLA-DQ8+ CeD participants; details: for IL-2 response (in words): HLA-DQ8+ donors, whole blood; for IL-2 response (in words) / mean IL-2 titer: 24 hours; for mean IL-2 titer fold higher than Nex01/02 peptide mix / mean IL-2 titer: HLA-DQ8+ participants, 10 μM
Excerpt: FIGS. 11A-11B are graphs depicting the evaluation of the ability of various molarities of three gliadin polypeptides (Cv6, Av6, and 4K), two peptide mixes containing either the four individual building blocks BB1, BB2a, BB3a and BB4a (BB1-4a) or two Nexvax2 peptides (Nex01/02), and six individual building blocks or peptides (BB1, BB2a, BB3a, BB4a, Nex01, and Nex02) to restimulate gluten-specific T cell collected from HLA-DQ8+ CeD patients using a whole blood IL-2 release assay. The whole blood cytokine release assay was performed in four HLA-DQ8+ participants with biopsy-confirmed celiac disease as described in FIG. 10. Data are expressed in femtogram/mL of plasma (A), or as fold change from the negative control (PBS 1×) (B). Symbols represent individual participants (patient ID); bars represent the median+interquartile range of individual values.
as §1, §2, §3, §4

[3] = test system: 0177 2.61 (DQ2.5-glia-ω2 specific) T cell clone; assay: IFN-γ ELISpot T cell clone assay; details: 10 μM, 0177 2.61 clone
[4] = test system: 3007.28 (DQ2.5-glia-α2 specific) T cell clone; assay: IFN-γ ELISpot T cell clone assay; details: 10 μM, 3007.28 clone

| Molecule | IL-2 response (in words) [1] | IL-2 response (in words) [2] | mean spot forming units (IFN-γ ELISpot) [3] | mean spot forming units (IFN-γ ELISpot) [4] | mean IL-2 titer [1] [fg/mL] | mean IL-2 titer fold higher than Nex01/02 peptide mix [2] [fold] | mean IL-2 titer [2] [fg/mL] |
| --- | --- | --- | --- | --- | --- | --- | --- |
| H-PQPEQPEQPFPEQPQ-NH2 [BB2a] | no or low response | potent IL-2 responses | – | – | – | – | – |
| H-PSGEGSFQPSQENPQ-NH2 [BB4a] | no or low response | potent IL-2 responses | – | – | – | – | – |
| QLQPFPQPELPYPQPELPYPQPELPYPQPQPKKKKPQPEQPEQPFPEQPQKKKKPQQPFPQPEQPFPWQPQKKKKPSGEGSFQPSQENPQ (peptide) QLQPFPQPELPYPQPELPYPQPELPYPQPQPKKKKPQPEQPEQPFPEQPQKKKKPQQPFPQPEQPFPWQPQKKKKPSGEGSFQPSQENPQ | – | – | 11 | 109 | 7199 | 15 | 6300 |
| QLQPFPQPELPYPQPELPYPQPELPYPQPQPGPRRKKPQPEQPEQPFPEQPQGARRKKPQQPFPQPEQPFPWQPQGPKKPSGEGSFQPSQENPQ (peptide) QLQPFPQPELPYPQPELPYPQPELPYPQPQPGPRRKKPQPEQPEQPFPEQPQGARRKKPQQPFPQPEQPFPWQPQGPKKPSGEGSFQPSQENPQ | – | – | 12 | 122 | 6664 | 9 | 3695 |
| QLQPFPQPELPYPQPELPYPQPELPYPQPQPGPRRKKPQPEQPEQPFPEQPQGCRRKKPQQPFPQPEQPFPWQPQGPKKPSGEGSFQPSQENPQ (peptide) QLQPFPQPELPYPQPELPYPQPELPYPQPQPGPRRKKPQPEQPEQPFPEQPQGCRRKKPQQPFPQPEQPFPWQPQGPKKPSGEGSFQPSQENPQ | – | – | 16 | 117 | 4858 | 11 | 4528 |
